Results on 1 molecule are retold here after patent US20120128626A1 (ALDERBIO, published 2012).

Common to all, as to assay: cell-based or functional assay
In one experiment the target is T1, Cynomolgus monkey IL-6 (cynomolgus monkey, UniProt P79341 28-212, limits assumed).
T1 sequence (looked up): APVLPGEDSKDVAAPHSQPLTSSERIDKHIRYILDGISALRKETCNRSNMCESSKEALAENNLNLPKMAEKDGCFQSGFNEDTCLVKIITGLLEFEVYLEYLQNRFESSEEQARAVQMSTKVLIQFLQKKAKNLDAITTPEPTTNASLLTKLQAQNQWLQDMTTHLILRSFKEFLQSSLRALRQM

In the next experiment the target is T2, Rat IL-6 (rat, UniProt P20607 25-211).
T2 sequence (looked up): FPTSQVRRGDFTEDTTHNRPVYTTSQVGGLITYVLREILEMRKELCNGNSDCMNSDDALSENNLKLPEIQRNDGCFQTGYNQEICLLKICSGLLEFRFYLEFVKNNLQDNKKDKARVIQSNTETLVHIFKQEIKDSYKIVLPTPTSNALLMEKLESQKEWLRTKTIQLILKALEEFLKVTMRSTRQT

For another experiment, the target named is Human IL-6 (human, UniProt P05231 30-212).
A further experiment deals with T3, Mouse IL-6 (mouse, UniProt P08505 25-211).
T3 sequence (looked up): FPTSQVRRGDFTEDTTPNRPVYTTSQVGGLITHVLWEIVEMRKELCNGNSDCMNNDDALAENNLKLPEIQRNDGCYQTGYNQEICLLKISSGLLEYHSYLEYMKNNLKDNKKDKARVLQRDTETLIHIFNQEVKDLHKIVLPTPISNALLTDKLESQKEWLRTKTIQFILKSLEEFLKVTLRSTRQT

B1: Ab1 (antibody, human IgG1, kappa, N297A, V domains shown)
VH: EVQLVESGGGLVQPGGSLRLSCAASGFSLSNYYVTWVRQAPGKGLEWVGIIYGSDETAYATSAIGRFTISRDNSKNTLYLQMNSLRAEDTAVYYCARDDSSDWDAKFNLWGQGTLVTVSS
VL: AIQMTQSPSSLSASVGDRVTITCQASQSINNELSWYQQKPGKAPKLLIYRASTLASGVPSRFSGSGSGTDFTLTISSLQPDDFATYYCQQGYSLRNIDNAFGGGTKVEIKR
In the case of B1, the “IC50, inhibition of IL-6-stimulated T1165 cell proliferation” value was 12 pM with Cynomolgus monkey IL-6, 2060 pM in the experiment with Rat IL-6, 13 pM with Human IL-6 and 1840 pM in the experiment with Mouse IL-6.
